Measured values published in patent US20230310634A1, “ANTI-HUMAN VISTA ANTIBODIES AND USE THEREOF” (IMMUNEXT, INC., priority 2020, published 2023).

Columns and labels:
[1] = target: CD163 on human cells (human) (UniProt Q86VB7); experiment: flow cytometry with quantification beads, CD14+ monocytes in human whole blood, n=3 donors
[2] = target: CD163 on human cells (human) (UniProt Q86VB7); experiment: flow cytometry with quantification beads, CD14+ monocytes of human PBMC, n=5 donors (one outlier donor)
[3] = target: T1, human VISTA on cells (human) (UniProt Q9H7M9); experiment: flow cytometry, AF488-labelled control antibody on human monocytes, MFI normalised to INX200 at 0 min
T1 sequence: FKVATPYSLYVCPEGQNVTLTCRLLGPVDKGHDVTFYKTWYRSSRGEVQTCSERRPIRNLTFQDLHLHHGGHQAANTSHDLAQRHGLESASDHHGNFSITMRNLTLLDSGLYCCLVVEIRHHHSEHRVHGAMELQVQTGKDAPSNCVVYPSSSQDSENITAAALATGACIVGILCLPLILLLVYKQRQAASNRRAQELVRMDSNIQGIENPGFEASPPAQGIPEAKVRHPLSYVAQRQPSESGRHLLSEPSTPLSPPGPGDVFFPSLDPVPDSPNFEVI

Sequence of CD163 on human cells (human) (Q86VB7 42-1156): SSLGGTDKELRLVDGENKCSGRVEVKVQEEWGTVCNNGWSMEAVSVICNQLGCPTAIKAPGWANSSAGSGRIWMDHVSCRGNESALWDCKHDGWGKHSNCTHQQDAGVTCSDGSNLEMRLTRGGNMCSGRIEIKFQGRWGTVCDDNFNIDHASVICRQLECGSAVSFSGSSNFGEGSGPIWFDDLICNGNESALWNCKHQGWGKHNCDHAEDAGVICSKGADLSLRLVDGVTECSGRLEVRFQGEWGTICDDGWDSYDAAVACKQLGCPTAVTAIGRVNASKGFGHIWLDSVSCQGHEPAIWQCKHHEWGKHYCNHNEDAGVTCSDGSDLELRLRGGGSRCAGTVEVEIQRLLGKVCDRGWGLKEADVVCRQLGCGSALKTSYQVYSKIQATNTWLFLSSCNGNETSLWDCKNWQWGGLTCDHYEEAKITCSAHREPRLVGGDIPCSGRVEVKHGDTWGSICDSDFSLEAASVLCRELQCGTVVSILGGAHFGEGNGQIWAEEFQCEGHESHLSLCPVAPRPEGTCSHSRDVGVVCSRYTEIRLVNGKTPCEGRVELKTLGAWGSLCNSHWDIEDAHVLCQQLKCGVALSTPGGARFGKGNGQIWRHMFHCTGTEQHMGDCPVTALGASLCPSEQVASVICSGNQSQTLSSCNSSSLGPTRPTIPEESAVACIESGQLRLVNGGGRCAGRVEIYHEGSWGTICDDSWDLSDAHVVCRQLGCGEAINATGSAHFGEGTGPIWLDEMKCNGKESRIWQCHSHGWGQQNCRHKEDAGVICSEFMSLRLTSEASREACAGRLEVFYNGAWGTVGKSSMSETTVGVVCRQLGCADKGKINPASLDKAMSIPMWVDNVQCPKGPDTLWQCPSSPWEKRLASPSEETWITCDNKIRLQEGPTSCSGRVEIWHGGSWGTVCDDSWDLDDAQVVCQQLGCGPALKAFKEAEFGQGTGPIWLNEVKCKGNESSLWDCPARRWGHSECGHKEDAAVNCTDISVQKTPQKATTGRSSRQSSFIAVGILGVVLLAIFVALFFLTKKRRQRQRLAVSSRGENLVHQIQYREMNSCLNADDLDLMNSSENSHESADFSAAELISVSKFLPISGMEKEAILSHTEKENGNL

| antibody binding capacity (ABC) [1] [molecules] | antibody binding capacity (ABC) (ABC (molecules per cell)) [2] | nonspecific signal at 0 min relative to INX200 (% of MFI) [3] [%] | Substance |
| --- | --- | --- | --- |
| 13100 | 36700 |  | CD163 Alexa Fluor 647 clone GHI/61 (antibody) |
|  |  | 5.9 | Human IgG1si (antibody) |
